According to patent publication US20230272413A1 (UNITED STATES OF AMERICA AS REPRESENTED BY THE SECRETARY OF …, published 2023):

Target: the molecule itself
Assay: SEC-MALS, homodimer

B1: PLRV ^NRTD (other)
chain: KHERFIAYVGIPMLTIQARENDDQIILGSLGSQRMKYIEDENQNYTNISSEYYSQSSMQAVPMYYFNVPKGQWSVDISCEGYQPTSSTSDPHRGRSDGMIAYSNADSDYWNVGEADGVKISKLRNDNTYRQGHPELEINSCHFREGQLLERDATISFHVEAPTDGRFFLVGPAIQKTAKYNYTISYGDWTDRDMELGLITVVLDEHLEGTGSANRVRRPPREGHIYMAS
notes: Selenomethionine-labeled protein was used for phasing; also called Potato leafroll virus ^NRTD; WT PLRV ^NRTD
Question: Does B1 bind?
Answer: binds
